Data reported in patent US20130272968A1 (Bayer, published 2013).
Where a chain is given by its changes, count along the chain named. Values belong to the binder of their own block, whether it stands above or below them.

Columns and labels:
[1] = biological target: T1, human prolactin receptor on cells (T47D cells; HEK293 and Ba/F cells stably transfected with human PRLR) (human, UniProt P16471 25-622); assay: cell-based or functional assay
T1 sequence (looked up): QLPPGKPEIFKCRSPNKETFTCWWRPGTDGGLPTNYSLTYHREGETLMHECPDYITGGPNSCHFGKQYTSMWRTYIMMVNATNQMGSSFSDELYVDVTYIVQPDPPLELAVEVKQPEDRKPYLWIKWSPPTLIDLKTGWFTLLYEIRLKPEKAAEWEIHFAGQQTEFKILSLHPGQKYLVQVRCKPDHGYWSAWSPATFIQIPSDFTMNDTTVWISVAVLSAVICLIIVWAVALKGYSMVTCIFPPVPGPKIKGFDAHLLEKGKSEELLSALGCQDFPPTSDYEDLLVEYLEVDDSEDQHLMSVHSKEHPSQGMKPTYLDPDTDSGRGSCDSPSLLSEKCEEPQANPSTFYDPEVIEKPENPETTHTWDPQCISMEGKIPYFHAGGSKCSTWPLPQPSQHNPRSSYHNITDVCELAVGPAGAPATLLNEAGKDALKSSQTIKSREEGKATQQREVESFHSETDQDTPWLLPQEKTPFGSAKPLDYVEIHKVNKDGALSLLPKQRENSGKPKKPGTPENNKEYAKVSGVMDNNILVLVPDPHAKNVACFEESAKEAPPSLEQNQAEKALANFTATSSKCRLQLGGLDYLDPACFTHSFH

[2] = biological target: T2, extracellular domain of human PRLR (soluble, monomeric, expressed in HEK293 cells) (human, UniProt P16471 25-234); assay: HTRF competition: Fab-containing E. coli supernatant with biotinylated ECD of human PRLR and streptavidin-europium, then Alexa Fluor 647-labelled IgG1 006-H08 as competitor; signal at 665 nm after 5 to 65 min; lower signal than control Fab 006-H08 = improved binding
T2 construct: also called ECD-PRLR; ECD of PRLR
T2 sequence: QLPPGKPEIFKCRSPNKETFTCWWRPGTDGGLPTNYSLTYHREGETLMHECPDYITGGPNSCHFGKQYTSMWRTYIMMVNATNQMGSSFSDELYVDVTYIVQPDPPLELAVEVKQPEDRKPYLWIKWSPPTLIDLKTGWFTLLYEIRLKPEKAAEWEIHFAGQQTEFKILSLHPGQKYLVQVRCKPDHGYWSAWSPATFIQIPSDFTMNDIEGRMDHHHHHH

[3] = biological target: T3, murine prolactin receptor on cells (HEK293 and Ba/F cells stably transfected with murine PRLR) (mouse, UniProt Q08501 20-608); assay: cell-based or functional assay
T3 sequence (looked up): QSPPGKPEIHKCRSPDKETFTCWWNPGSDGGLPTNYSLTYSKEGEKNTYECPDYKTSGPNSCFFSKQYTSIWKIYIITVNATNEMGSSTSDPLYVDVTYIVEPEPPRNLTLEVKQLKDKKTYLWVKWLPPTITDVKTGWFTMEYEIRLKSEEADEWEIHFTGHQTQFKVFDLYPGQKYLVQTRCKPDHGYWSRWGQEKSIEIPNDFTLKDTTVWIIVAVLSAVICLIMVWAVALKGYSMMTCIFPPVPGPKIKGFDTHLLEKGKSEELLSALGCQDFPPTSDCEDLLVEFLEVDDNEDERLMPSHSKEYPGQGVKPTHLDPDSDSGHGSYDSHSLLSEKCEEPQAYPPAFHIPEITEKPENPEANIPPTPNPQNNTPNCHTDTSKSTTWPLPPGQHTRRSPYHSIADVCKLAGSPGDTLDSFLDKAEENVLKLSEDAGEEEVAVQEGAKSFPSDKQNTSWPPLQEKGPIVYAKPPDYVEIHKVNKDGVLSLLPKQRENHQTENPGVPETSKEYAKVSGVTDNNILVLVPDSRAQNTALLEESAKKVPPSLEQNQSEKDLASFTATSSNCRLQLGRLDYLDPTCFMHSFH

IC50, prolactin-activated luciferase reporter gene activity, HEK293 cells stably transfected with hPRLR [1]: 0.83 mg/L
B1: 006-H08 (human IgG1) (antibody, V domains shown)
VH: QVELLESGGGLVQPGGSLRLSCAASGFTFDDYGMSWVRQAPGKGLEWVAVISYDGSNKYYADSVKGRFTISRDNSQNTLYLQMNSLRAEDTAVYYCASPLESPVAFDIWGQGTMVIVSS
VL: DIVLTQPPSASGTPGQRVTISCSGSNSNIGSNPVNWYQQLPGTAPKLLIYDNNKRPSGVPDRFSGSKSGTSASLAISGLRSEDEADYYCQSYDTGLSGWVFGGGTKLTVLG

binding result [2]: binds
B2: 006-H08-12-2 (Fab, V domains shown)
VH: EVQLLESGGGLVQPGGSLRLSCAASGFTFDDYGMSWVRQAPGKGLEMVAVISFDGSNKYYADSVKGRFTISRDNSQNTLYLQMNSLRAEDTAVYYCASPLESPVAFDIWGQGTLVTVSS
VL: QSVLTQPPSASGTPGQRVTISCSGLNSNVGSSPVNWYQQLPGTAPKLLIYDNNKRPSGVPDRFSGSKSGTSASLAISGLRSEDEADYYCQSYDEGSGMWVFGGGTKLTVL
notes: Tested as E. coli supernatant; also called maturated 006-H08 Fab variant; copies: 1 + 1

binding result [2]: binds
B3: 006-H08-29-1 (Fab, V domains shown)
VH: B2 VH
VL: B2 VL with S27D, S31G, E94T, S96A
notes: as for B2

binding result [2]: binds
B4: 006-H08-39-7 (Fab, V domains shown)
VH: B2 VH
VL: B2 VL with S31G
notes: as for B2

binding result [2]: binds
B5: 006-H08-15-5 (Fab, V domains shown)
VH: B2 VH
VL: B2 VL with V29I, S31G, S96L, G97S, M98G
notes: as for B2

binding result [2]: binds
B6: 006-H08-48-5 (Fab, V domains shown)
VH: B2 VH
VL: B2 VL with S27D, S32N, E94T, G97S
notes: as for B2

IC50, prolactin-activated luciferase reporter gene activity, HEK293 cells stably transfected with hPRLR [1]: 0.63 mg/L
IC50, inhibition of prolactin-activated proliferation of Ba/F cells stably expressing the murine prolactin receptor [3]: > 30 mg/L
B7: HE06.642 (antibody, IgG1, V domains shown)
VH: EVQLVESGGGLVQPGGSLRLSCAVSGFTFSSYGMSWVRQAPGKGLEWVATVSSGGTYTYYPDSVKGRFTISRDNSKNTLYLQMNSLRAEDTAVYYCARHRGNYYATYYYAMDYWGQGTLVTVSS
VL: DIVLTQSPDSLAVSLGERATINCKASKSVSTSGYTYMHWYQQKPGQPPKLLIYLASNRESGVPDRFSGSGSGTDFTLTISPVQAEDVATYYCQHSGELPPSFGQGTKLEIKR
